In one assay the test system is Abp1 PPIs. The assay is described as follows: DHFR-PCA of Abp1 SH3-swapped baits (Fig. 2B-D, S2C, S2F). The class given is cell-based, Saccharomyces cerevisiae. The note with it: number of interactions of Abp1 carrying the named SH3; sheet FigS2A-B. The essentials: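 Yeast DHFR-PCA in which Abp1 baits, carrying their SH3 replaced by CRISPR–Cas9 with one of 27 yeast SH3s or human CTTN, HCLS1 or DBNL SH3s, were mated against 575 SH3-associated DHFR F[3] preys plus 40 negative controls. Four tests were run per PPI. Diploids were selected twice (48 h, 30 °C), then grown 4 days on PCA selection media.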

For the next assay, the system named is Abp1 (1xFLAG). Nature of the assay: Western blot expression level of Abp1 SH3-swapped baits (Fig. S2A-B). The class given is cell-based, Saccharomyces cerevisiae. More on the design: Flag (2 bands): unit not given here. The note with it: sheet FigS2A-B; for Ratio Swap/WT Flag: Flag signal relative to Abp1 WT (Abp1-1 to Abp1-4 = 1); for Flag (2 bands): Western blot Flag signal (2 bands), Abp1 WT, SH3-deleted or SH3-swapped. On the procedure:
Precultures of yeast cells expressing baits fused with the DHFR F[1,2]-FLAG were grown overnight at 30 °C with agitation in synthetic complete medium. The next day, cells were expanded in synthetic complete medium to reach their exponential phase (OD600 of around 1.0), pelleted, and frozen at −80 °C. The equivalent of fifty OD600 of cells was resuspended in ice-cold yeast lysis buffer (10 mM Tris-HCl pH 7.4, 150 mM NaCl, 0.5 mM EDTA (Millipore Sigma), 1% Triton X-100 (Millipore Sigma), and one cOmplete Mini Protease Inhibitor Cocktail (Millipore Sigma) per 10 mL) with […] glass beads (Millipore Sigma) and disrupted at 4 °C by 10 cycles of 2 min vortexing and 2 min cooldown. The equivalent of […] of lysed cells was used for the immunoprecipitation of the bait proteins using FLAG-M2 agarose beads (Millipore Sigma). The beads were incubated with the cell lysates for 120 min at 4 °C with a slow rotation, followed by three washes with the yeast lysis buffer.
Protein extracts and affinity-purified baits from yeast and human lysed cells were migrated on 10% polyacrylamide gels. The separated proteins were then transferred to nitrocellulose membranes. Validation of correct protein loading was done with ponceau staining of the membranes. Before the primary antibody incubations, membranes were blocked in 5% milk. Protein signals were detected on an Amersham Imager 600RGB (GE Healthcare) following the incubation of the membranes with the appropriate HRP-conjugated secondary antibodies and the Clarity Western ECL Substrate (Bio-Rad). The antibodies used in this study are M2-HRP (A8592, Sigma, 1/50,000), rabbit anti-FLAG (F7425, Sigma, 1/1000), PAK (SC-881, Santa Cruz, 1/200), p130cas/BCAR1 (SC-860, Santa Cruz, 1/200), actin (Cell Signaling Technology, 1/2000), anti-mouse HRP (Cell Signaling Technology, 1/10,000) and anti-rabbit HRP (Cell Signaling Technology, 1/10,000). The quantification of the WB signals was performed with the Amersham Imager 600 analysis software (GE Healthcare).
In general terms: In western blotting, separated proteins are transferred to a membrane and probed.

Results on 3 molecules are retold here after publication PMC7954794, “Protein context shapes the specificity of SH3 domain-mediated interactions in vivo” (Nature Communications, 2021).

B1: Pex13 (protein, UniProt P80667 1-386, looked up)
Peroxisomal membrane protein …: MSSTAVPRPKPWETSASLEEPQRNAQSLSAMMTSNQQDSRPTEESNNSNSASESAPEVLPRPAALNSSGTYGESNTIPGIYGNSNYGIPYDNNPYSMNSIYGNSIGRYGYGGSYYGNNYGSFYGGGYGAGAGYGMNNGSGLGESTKATFQLIESLIGAVTGFAQMLESTYMATHNSFFTMISVAEQFGNLKEMLGSFFGIFAIMKFLKKILYRATKGRLGIPPKNFAESEGSKNKLIEDFQKFNDSGTINSNEKATRRKISWKPLLFFLMAVFGFPYLLNKFITKLQTSGTIRASQGNGSEPIDPSKLEFARALYDFVPENPEMEVALKKGDLMAILSKKDPLGRDSDWWKVRTKNGNIGYIPYNYIEIIKRRKKIEHVDDETRTH
Regarding B1, the “Interactions in Abp1” value in the assay on Abp1 PPIs worked out at 91. Also, in the assay with Abp1 (1xFLAG), the “Ratio Swap/WT Flag” value is on record as 0.9802 and the “Flag (2 bands)” value was 104696.

B2: Myo5 (protein, UniProt Q04439 1-1219, looked up)
Myosin-5: MAILKRGARKKVHQEPAKRSANIKKATFDSSKKKEVGVSDLTLLSKISDEAINENLKKRFLNATIYTYIGHVLISVNPFRDLGIYTDAVMNEYKGKNRLEVPPHVFAIAESMYYNMKSYNENQCVIISGESGAGKTEAAKRIMQYIAAASSTHTESIGKIKDMVLATNPLLESFGCAKTLRNNNSSRHGKYLEIKFNNQFEPCAGNITNYLLEKQRVVSQIKNERNFHIFYQFTKGASDAYRQTFGVQKPEQYVYTAAAGCISAETIDDLQDYQETLKAMRVIGLGQEEQDQIFRMLAAILWIGNVSFIENEEGNAQVRDTSVTDFVAYLLQIDSQLLIKSLVERIMETNHGMKRGSVYHVPLNIVQADAVRDALAKAIYNNLFDWIVSRVNKSLQAFPGAEKSIGILDIYGFEIFEHNSFEQICINYVNEKLQQIFIQLTLKSEQETYEREKIQWTPIKYFDNKVVCDLIEARRPPGIFAAMNDSVATAHADSNAADQAFAQRLNLFTTNPHFDLRSNKFVIKHYAGDVTYDIDGITDKNKDQLQKDLVELIGTTTNTFLATIFPDTVDRESKRRPPTAGDKIIKSANDLVETLSKAQPSYIRTIKPNETKSPNDYDDRQVLHQIKYLGLQENVRIRRAGFAYRQVFEKFVERFYLLSPHCSYAGDYTWQGDTLDAVKYILQDSSIPQQEYQLGVTSVFIKTPETLFALEHMRDRYWHNMAARIQRAWRRFLQRRIDAATKIQRTIRERKEGNKYEKLRDYGTKVLGGRKERRSMSLLGYRAFMGDYLSCNESKSKGAYIKRQVSIKEKVIFSIHGEALHTKFGRSAQRLKKTFLLTPTTLYIVGQTLVQNAMTYTQDYKIDVRNIQAVSLTNLQDDWVAIKLASSGQPDPLINTYFKTELITHLKRLNDKIQIKIGSAIEYQKKPGKLHSVKCQINESAPKYGDIYKSSTISVRRGNPPNSQVHKKPRKKSSISSGYHASSSQATRRPVSIAAAQHVPTAPASRHSKKPAPPPPGMQNKAATRRSVPNPASTLTASQSNARPSPPTAATRATPAATPAAAAMGSGRQANIPPPPPPPPPSSKPKEPMFEAAYDFPGSGSPSELPLKKGDVIYITREEPSGWSLGKLLDGSKEGWVPTAYMKPHSGNNNIPTPPQNRDVPKPVLNSVQHDNTSANVIPAAAQASLGDGLANALAARANKMRLESDDEEANEDEEEDDW
Turning to B2, the “Interactions in Abp1” value with Abp1 PPIs is listed as 100. In the assay with Abp1 (1xFLAG), the “Ratio Swap/WT Flag” value amounted to 0.7689 and the “Flag (2 bands)” value was 82124.

B3: Lsb3 (protein)
chain: MGINNPIPRSLKSETKKAAKILASFVKPNQVFGADQVIPPDVLKRAKGLAIITILKAGFLFSGRAGSGVIVARLKDGTWSAPSAIAMAGAGAGGMVGIELTDFVFILNTQDAVKSFSEFGTITLGGNVSVSAGPLGRSAEAAASASAGGVAAVFAYSKSKGLFAGVSVEGSAIIERREANRKFYGDNCTAKMILSGRIRPPPAVDPLFRVLESRAFNYRPSNGGRGSFDDDEDDYYDDDDYYNDIPSSFSSTDASSTRPNTRSTRRRAQSGSRYTFDDDDDDDDYGTGYSRNSRLAPTNSGGSGGKLDDPSGASSYYASHRRSGTAQSRARSSRNRWADDEYDDYDDDYESGYRRGNGRDRTKDREVDDLSNRFSKSRISSASTPQTSQGRFTAPTSPSTSSPKAVALYSFAGEESGDLPFRKGDVITILKKSDSQNDWWTGRVNGREGIFPANYVELV
modifications: left off: DHFR F[3], C-terminal, kept
On to B3, for which the “Interactions in Abp1” value in the assay on Abp1 PPIs came to 107. Also, in the assay on Abp1 (1xFLAG), the “Ratio Swap/WT Flag” value is 0.537 and the “Flag (2 bands)” value came to 57357.
